# In patent publication US20240376455:
# Columns and labels:
# Assay in all cases: cleavage_in_vitro
# [1] = tested on: T1, LPG10146 (Bifidobacterium thermacidophilum); details: PAM SEQ ID 79
# T1 sequence: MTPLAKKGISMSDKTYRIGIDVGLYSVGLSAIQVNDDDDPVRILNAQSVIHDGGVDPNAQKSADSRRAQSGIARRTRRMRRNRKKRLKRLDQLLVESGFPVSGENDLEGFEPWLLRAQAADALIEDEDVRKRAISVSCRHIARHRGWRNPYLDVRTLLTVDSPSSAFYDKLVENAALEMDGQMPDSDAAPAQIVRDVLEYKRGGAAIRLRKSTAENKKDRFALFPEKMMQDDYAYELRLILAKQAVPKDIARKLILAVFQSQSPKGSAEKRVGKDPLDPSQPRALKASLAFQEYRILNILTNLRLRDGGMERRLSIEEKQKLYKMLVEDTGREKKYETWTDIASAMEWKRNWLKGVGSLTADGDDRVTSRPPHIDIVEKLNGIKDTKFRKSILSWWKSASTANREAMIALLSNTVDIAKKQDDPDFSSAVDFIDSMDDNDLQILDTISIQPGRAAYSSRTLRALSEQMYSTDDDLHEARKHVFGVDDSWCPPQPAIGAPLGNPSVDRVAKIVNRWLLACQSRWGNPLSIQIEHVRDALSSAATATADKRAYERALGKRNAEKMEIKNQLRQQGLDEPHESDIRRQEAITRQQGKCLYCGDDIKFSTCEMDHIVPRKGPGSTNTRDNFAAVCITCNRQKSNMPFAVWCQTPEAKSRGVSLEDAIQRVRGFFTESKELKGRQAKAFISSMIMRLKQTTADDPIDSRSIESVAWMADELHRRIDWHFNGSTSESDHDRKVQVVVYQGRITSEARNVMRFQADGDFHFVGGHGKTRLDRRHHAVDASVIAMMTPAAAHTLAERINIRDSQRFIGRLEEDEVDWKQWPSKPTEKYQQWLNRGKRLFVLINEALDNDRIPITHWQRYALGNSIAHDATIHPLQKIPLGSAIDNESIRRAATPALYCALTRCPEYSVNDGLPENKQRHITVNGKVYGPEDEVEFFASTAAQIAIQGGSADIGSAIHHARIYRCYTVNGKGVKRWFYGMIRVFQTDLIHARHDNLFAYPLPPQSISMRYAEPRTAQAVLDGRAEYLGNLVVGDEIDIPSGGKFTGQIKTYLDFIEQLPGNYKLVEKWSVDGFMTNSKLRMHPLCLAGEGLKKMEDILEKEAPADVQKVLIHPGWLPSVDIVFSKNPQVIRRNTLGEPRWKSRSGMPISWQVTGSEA
# [2] = tested on: T2, LPG10138 (Bacillus megaterium)
# T2 sequence: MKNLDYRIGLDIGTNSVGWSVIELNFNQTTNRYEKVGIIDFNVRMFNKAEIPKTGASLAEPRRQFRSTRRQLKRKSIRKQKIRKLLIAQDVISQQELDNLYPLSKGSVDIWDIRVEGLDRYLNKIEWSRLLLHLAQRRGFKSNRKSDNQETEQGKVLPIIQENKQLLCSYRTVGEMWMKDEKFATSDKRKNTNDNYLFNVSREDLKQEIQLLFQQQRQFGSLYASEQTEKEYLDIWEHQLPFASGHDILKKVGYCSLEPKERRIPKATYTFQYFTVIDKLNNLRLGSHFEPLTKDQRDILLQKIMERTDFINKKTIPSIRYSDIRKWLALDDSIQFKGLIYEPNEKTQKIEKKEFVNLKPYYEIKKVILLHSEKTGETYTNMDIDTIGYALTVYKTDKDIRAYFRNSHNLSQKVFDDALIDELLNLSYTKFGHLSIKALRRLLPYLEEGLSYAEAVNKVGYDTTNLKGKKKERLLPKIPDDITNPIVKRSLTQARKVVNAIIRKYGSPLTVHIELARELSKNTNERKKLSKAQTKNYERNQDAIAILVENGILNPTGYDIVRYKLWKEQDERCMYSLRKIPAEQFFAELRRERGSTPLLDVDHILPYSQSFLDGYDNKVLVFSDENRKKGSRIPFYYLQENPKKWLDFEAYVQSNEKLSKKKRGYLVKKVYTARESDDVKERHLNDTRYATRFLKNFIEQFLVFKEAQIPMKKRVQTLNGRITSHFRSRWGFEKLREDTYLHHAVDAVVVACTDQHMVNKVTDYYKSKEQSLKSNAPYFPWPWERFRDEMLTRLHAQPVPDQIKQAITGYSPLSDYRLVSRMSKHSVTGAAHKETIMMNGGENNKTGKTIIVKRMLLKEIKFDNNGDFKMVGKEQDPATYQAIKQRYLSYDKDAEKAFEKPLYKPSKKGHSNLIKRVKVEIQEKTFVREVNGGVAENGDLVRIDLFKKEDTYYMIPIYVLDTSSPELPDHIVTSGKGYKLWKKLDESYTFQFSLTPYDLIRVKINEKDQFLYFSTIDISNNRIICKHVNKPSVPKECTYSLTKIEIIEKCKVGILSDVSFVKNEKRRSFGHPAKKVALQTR
# [3] = tested on: T3, LPG10136 (Bacillus endophyticus); details: PAM NNNNCC
# T3 sequence: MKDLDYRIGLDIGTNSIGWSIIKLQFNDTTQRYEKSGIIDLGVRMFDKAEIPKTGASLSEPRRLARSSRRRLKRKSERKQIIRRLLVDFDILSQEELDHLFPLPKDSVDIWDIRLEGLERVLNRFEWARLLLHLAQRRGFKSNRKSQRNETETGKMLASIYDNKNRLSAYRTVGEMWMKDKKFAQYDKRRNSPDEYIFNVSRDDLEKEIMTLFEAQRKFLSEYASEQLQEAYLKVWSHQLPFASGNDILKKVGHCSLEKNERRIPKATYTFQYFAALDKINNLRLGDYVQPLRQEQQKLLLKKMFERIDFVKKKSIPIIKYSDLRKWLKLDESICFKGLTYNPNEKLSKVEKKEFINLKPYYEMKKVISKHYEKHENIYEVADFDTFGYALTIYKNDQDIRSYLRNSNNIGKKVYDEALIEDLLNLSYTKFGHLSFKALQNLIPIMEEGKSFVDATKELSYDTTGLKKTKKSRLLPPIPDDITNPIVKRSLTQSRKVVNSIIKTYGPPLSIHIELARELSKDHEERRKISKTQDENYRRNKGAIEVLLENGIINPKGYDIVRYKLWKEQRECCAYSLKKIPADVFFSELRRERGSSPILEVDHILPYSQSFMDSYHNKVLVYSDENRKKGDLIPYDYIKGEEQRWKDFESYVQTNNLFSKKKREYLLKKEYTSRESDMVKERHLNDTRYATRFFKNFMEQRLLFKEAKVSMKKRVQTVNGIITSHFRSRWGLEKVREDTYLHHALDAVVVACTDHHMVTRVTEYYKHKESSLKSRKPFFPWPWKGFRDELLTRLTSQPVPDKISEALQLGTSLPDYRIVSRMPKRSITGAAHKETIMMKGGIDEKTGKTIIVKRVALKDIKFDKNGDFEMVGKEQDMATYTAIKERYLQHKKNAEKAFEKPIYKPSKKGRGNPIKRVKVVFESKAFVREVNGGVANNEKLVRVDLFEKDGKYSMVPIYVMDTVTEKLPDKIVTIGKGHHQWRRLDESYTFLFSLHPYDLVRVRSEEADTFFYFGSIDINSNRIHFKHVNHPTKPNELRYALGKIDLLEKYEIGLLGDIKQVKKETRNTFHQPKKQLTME
sequence,measurement,setting,value
GCUGAGAAUUAGCAUCCUUCAAAGGAAGAAGCUAAUUCUCAGUAAGUACAGCAAUUAAUAGCUGUAUCUGAAUGCUAAGCGGUUAGCCGCAGGGGAGAGCUUCGGCUCUCCCCGUUCUUUU / GATATAGACGTTGTGGCTGTTGTAGTAGGAAACC / GGTTTCCTACTACAACAGCCACAACGTCTATATC [LPG10146 sgRNA L2 ; Library 2 target AGGAAACC],activity (% target strand cleaved),[1],48.9
GCUGAGAAUUAGCAUCCUUCAAAGGAAGAAGCUAAUUCUCAGUAAGUACAGCAAUUAAUAGCUGUAUCUGAAUGCUAAGCGGUUAGCCGCAGGGGAGAGCUUCGGCUCUCCCCGUUCUUUU / GATATAGACGTTGTGGCTGTTGTAGTGAGTAACC / GGTTACTCACTACAACAGCCACAACGTCTATATC [LPG10146 sgRNA L2 ; Library 2 target GAGTAACC],activity (% target strand cleaved),[1],57.7
GCUGAGAAUUAGCAUCCUUCAAAGGAAGAAGCUAAUUCUCAGUAAGUACAGCAAUUAAUAGCUGUAUCUGAAUGCUAAGCGGUUAGCCGCAGGGGAGAGCUUCGGCUCUCCCCGUUCUUUU / GGACAGCAGCTTCCTATATCTCGTACGGATAACC / GGTTATCCGTACGAGATATAGGAAGCTGCTGTCC [LPG10146 sgRNA L1 ; Library 1 target GGATAACC],activity (% target strand cleaved),[1],0
GUCAUAGUCCCAUCAUAUCCAUUGCAAAGGCAAUGGAUAUGAUGUUUCUAUGAUAAGGGCUCUCUAAGAGAGACCUGUGGCGUUGGGGAUCGCCUGCCCGUUUCGACGGGUGUCUCCCCAUUU / GATATAGACGTTGTGGCTGTTGTAGTAGGAATTC / GAATTCCTACTACAACAGCCACAACGTCTATATC [LPG10138 sgRNA L2 ; Library 2 target AGGAATTC],activity (% target strand cleaved),[2]; PAM context AGGAATTC,0
GUCAUAGUCCCAUCAUAUCCAUUGCAAAGGCAAUGGAUAUGAUGUUUCUAUGAUAAGGGCUCUCUAAGAGAGACCUGUGGCGUUGGGGAUCGCCUGCCCGUUUCGACGGGUGUCUCCCCAUUU / GATATAGACGTTGTGGCTGTTGTAGTAGGACTTC / GAAGTCCTACTACAACAGCCACAACGTCTATATC [LPG10138 sgRNA L2 ; Library 2 target AGGACTTC],activity (% target strand cleaved),[2]; PAM SEQ ID 75,18
GUCAUAGUCCCAUCAUAUCCAUUGCAAAGGCAAUGGAUAUGAUGUUUCUAUGAUAAGGGCUCUCUAAGAGAGACCUGUGGCGUUGGGGAUCGCCUGCCCGUUUCGACGGGUGUCUCCCCAUUU / GGACAGCAGCTTCCTATATCTCGTACAGGACTTC / GAAGTCCTGTACGAGATATAGGAAGCTGCTGTCC [LPG10138 sgRNA L1 ; Library 1 target AGGACTTC],activity (% target strand cleaved),[2]; PAM SEQ ID 75,5.5
GUCAUAGUUCCACUAAAGCCAUUAAAGAAUGGCUUUGAUGUUUCUAUGAUAAGGGUUUCGACCCGUGGCGUUGGGGAUCGCCUGCCCAUUUCGAUGGGCGUCUCCCCAUUU / GATATAGACGTTGTGGCTGTTGTAGTAGGACCTC / GAGGTCCTACTACAACAGCCACAACGTCTATATC [LPG10136 sgRNA L2 ; Library 2 target AGGACCTC],activity (% target strand cleaved),[3]; 37C 120 min,30.9
GUCAUAGUUCCACUAAAGCCAUUAAAGAAUGGCUUUGAUGUUUCUAUGAUAAGGGUUUCGACCCGUGGCGUUGGGGAUCGCCUGCCCAUUUCGAUGGGCGUCUCCCCAUUU / GATATAGACGTTGTGGCTGTTGTAGTAGGACTTC / GAAGTCCTACTACAACAGCCACAACGTCTATATC [LPG10136 sgRNA L2 ; Library 2 target AGGACTTC],activity (% target strand cleaved),[3]; suboptimal PAM context,11.3
GUCAUAGUUCCACUAAAGCCAUUAAAGAAUGGCUUUGAUGUUUCUAUGAUAAGGGUUUCGACCCGUGGCGUUGGGGAUCGCCUGCCCAUUUCGAUGGGCGUCUCCCCAUUU / GGACAGCAGCTTCCTATATCTCGTACAGGACCTC / GAGGTCCTGTACGAGATATAGGAAGCTGCTGTCC [LPG10136 sgRNA L1 ; Library 1 target AGGACCTC],activity (% target strand cleaved),[3]; 37C 120 min,5
